Reference: patent publication US20170319722A1
Square brackets hold non-standard residues; d marks the D form. Primed or numbered codes have the meaning given here. Ends that are not written are not given here. * marks the point of attachment. PEG3′ = PEG linker of three ethylene glycol repeat units; Biotin = O=C1N[C@H]2[C@H](CS[C@H]2CCCCC(=O)*)N1; Lys(N3) = [N-]=[N+]=NCCCC[C@H](N)C(=O)O; Pra = C#CC[C@H](N)C(=O)O

How the values were obtained:
[1] = target: His-tagged CD8α human recombinant protein (MBS968456, MyBioSource) (human) (UniProt P01732); assay: sandwich ELISA; biotinylated biligand on NeutrAvidin plate, His-tagged CD8α titrated
Chain of His-tagged CD8α human recombinant protein (MBS968456, MyBioSource) (human) (P01732 22-182 limits assumed): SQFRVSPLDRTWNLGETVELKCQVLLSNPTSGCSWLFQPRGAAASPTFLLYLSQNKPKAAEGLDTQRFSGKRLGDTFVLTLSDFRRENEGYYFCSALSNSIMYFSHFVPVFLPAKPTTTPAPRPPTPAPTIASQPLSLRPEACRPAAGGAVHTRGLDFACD

[2] = target: His-tagged CD8α human recombinant protein (TP760215, Origene) (human) (UniProt P01732); assay: sandwich ELISA; biotinylated ligand on NeutrAvidin plate, His-tagged CD8α titrated, anti-His-AP detection
Chain of His-tagged CD8α human recombinant protein (TP760215, Origene) (human) (P01732 22-182 limits assumed): as above

[3] = target: His-tagged CD8α human recombinant protein (MBS968456, MyBioSource) (human) (UniProt P01732); assay: sandwich ELISA; biotinylated biligand on NeutrAvidin plate, His-tagged CD8α titrated, anti-His-AP detection
[4] = target: His-tagged CD8α human recombinant protein (MBS968456, MyBioSource) (human) (UniProt P01732); assay: sandwich ELISA; biligand against its single macrocycles Cy(HGRGH) and Cy(wplrf)
[5] = target: His-tagged CD8α human recombinant protein (MBS968456, MyBioSource) (human) (UniProt P01732); assay: ELISA with His-tagged CD8α human recombinant protein
[6] = target: His-tagged CD8α human recombinant protein (TP760215, Origene) (human) (UniProt P01732); assay: sandwich ELISA; range told of the group, upper end tied to Cy(rwfnv) by the legend of FIG. 5

Binder | fold below the affinity of the optimal linker (PEG5) biligand [1] | EC50 [2] | other results
WPLRF (all residues D-amino acids (lower case); N-terminal biotin-PEG3; triazole-cyclized (Cy) between flanking Pra and Az4) [biotin-PEG3-Cy(wplrf)] | – | 16 nM | –
Biotin-PEG3-Cy(HGRGH)-PEG5-Cy(wplrf) (not fully specified (some residues, C-terminus); printed as Biotin-PEG3-Cy(HGRGH)-PEG5-Cy(wplrf); numbers in words are those of the source; also: joined C-terminally through a PEG5 linker to the second macrocycle, triazole to a chain's N/C-terminus) peptide 1: {Biotin-PEG3′}-[Pra]HGRGH peptide 2: [Pra][dW][dP][dL][dR][dF] | – | – | EC50 [3]: 0.2 nM; fold improvement in affinity relative to the individual PCC macrocyclic ligands [4]: > 30 fold
FFRLY (all residues D-amino acids (lower case); N-terminal biotin-PEG3; triazole-cyclized (Cy) between flanking Pra and Az4) [biotin-PEG3-Cy(ffrly)] | – | 56 nM | –
Cy(Ghtwp)-Lys(Biotin)-PEG1-Cy(hGrGh) (not fully specified (C-terminus); printed as Cy(Ghtwp)-Lys(Biotin)-PEG1-Cy(hGrGh); also: triazole to a chain's N/C-terminus, triazole to a chain's N/C-terminus) peptide 1: [Pra]G[dH][dT][dW][dP] peptide 2: [Pra][dH]G[dR]G[dH][Lys(N3)] | – | – | EC50 [5]: 0.058 nM
WSVNV (all residues D-amino acids (lower case); N-terminal biotin-PEG3; triazole-cyclized (Cy) between flanking Pra and Az4) [biotin-PEG3-Cy(wsvnv)] | – | 9 nM | –
Biotin-PEG3-Cy(HGRGH)-PEG3-Cy(wplrf) (not fully specified (some residues, C-terminus); numbers in words are those of the source; also: joined C-terminally through a PEG3 linker to the second macrocycle, triazole to a chain's N/C-terminus) peptide 1: {Biotin-PEG3′}-[Pra]HGRGH peptide 2: [Pra][dW][dP][dL][dR][dF] | 10 fold | – | –

Now from value to binder, other results behind:

fold below the affinity of the optimal linker (PEG5) biligand [1] | EC50 [2] | Binder | other results
10 fold | – | Biotin-PEG3-Cy(HGRGH)-PEG7-Cy(wplrf) (not fully specified (some residues, C-terminus); printed as Biotin-PEG3-Cy(HGRGH)-PEG7-Cy(wplrf); numbers in words are those of the source; also: joined C-terminally through a PEG7 linker to the second macrocycle, triazole to a chain's N/C-terminus) peptide 1: {Biotin-PEG3′}-[Pra]HGRGH peptide 2: [Pra][dW][dP][dL][dR][dF] | –
10 fold | – | Biotin-PEG3-Cy(HGRGH)-PEG6-Cy(wplrf) (not fully specified (some residues, C-terminus); printed as Biotin-PEG3-Cy(HGRGH)-PEG6-Cy(wplrf); numbers in words are those of the source; also: joined C-terminally through a PEG6 linker to the second macrocycle, triazole to a chain's N/C-terminus) peptide 1: {Biotin-PEG3′}-[Pra]HGRGH peptide 2: [Pra][dW][dP][dL][dR][dF] | –
10 fold | – | Biotin-PEG3-Cy(HGRGH)-PEG4-Cy(wplrf) (not fully specified (some residues, C-terminus); printed as Biotin-PEG3-Cy(HGRGH)-PEG4-Cy(wplrf); numbers in words are those of the source; also: joined C-terminally through a PEG4 linker to the second macrocycle, triazole to a chain's N/C-terminus) peptide 1: {Biotin-PEG3′}-[Pra]HGRGH peptide 2: [Pra][dW][dP][dL][dR][dF] | –
– | 62 nM | RWFNV (all residues D-amino acids (lower case); N-terminal biotin-PEG3; triazole-cyclized (Cy) between flanking Pra and Az4) [biotin-PEG3-Cy(rwfnv)] | EC50 [6]: 62 nM
